{"source": "patent US20190119362A1", "key": {"[1]": {"biological_target": "aIgE-Fab (Fab fragment of Omalizumab) (Humanized antibody/IgG1κ)", "assay": "column breakthrough, 1 mg/mL aIgE-Fab, 0.33 mL/min"}, "[2]": {"biological_target": "aIgE-Fab (Fab fragment of Omalizumab) (Humanized antibody/IgG1κ)", "assay": "ratio of 55% DBC for aIgE-Fab after against before 5 cycles of 50 mM NaOH"}, "[3]": {"biological_target": "aIgE-Fab (Fab fragment of Omalizumab) (Humanized antibody/IgG1κ)", "assay": "column breakthrough, 1 mg/mL aIgE-Fab, after 5 cycles of 50 mM NaOH for 30 minutes"}, "[4]": {"biological_target": "aTNFa-Fab (Fab fragment of Infliximab) (Chimeric antibody/IgG1κ)", "assay": "column breakthrough, 1 mg/mL aTNFa-Fab, quasi-static binding capacity at 55% breakthrough"}}}
{"substance": "LB5t-Wild.4d (tetramer of B5 domain of PpL 312), immobilized on agarose carrier", "values": [{"measurement": "55% DBC before the alkaline washing", "setting": "[1]", "result": 23.6, "unit": "mg/mL"}, {"measurement": "binding capability maintained after alkaline treatment", "setting": "[2]", "result": 92.8, "unit": "%"}, {"measurement": "55% DBC after the alkaline washing", "setting": "[3]", "result": 21.9, "unit": "mg/mL"}]}
{"substance": "commercially available Protein L carrier (HiTrap Protein L, GE Healthcare Bioscience)", "values": [{"measurement": "55% DBC", "setting": "[4]", "result": 4.8, "unit": "mg/mL-gel"}]}
